Source: patent US9580731B2, “Methods of producing 7-carbon chemicals via c1 carbon chain elongation associated with coenzyme B synthesis” (INVISTA North America S.á r.l., priority 2012, dated 2017)

Tests used:
Type in all cases: biochemical
[1] = ω-transaminase activity assay, reverse direction, 7-aminoheptanoate to pimelate semialdehyde; conditions: cell free extract, 10 mM 7-aminoheptanoate, 10 mM pyruvate, 25° C., 4 h, against empty vector control, FIG. 15
Protocol: (§1) A sequence encoding an N-terminal His-tag was added to the genes from Chromobacterium violaceum, Pseudomonas syringae, Rhodobacter sphaeroides, and Vibrio Fluvialis encoding the ω-transaminases of SEQ ID NOs: 8, 10, 11 and 13, respectively (see FIG. 7) such that N-terminal HIS tagged ω-transaminases could be produced. Each of the resulting modified genes was cloned into a pET21a expression vector under control of the T7 promoter and each expression vector was transformed into a BL21[DE3] E. coli host. The resulting recombinant E. coli strains were cultivated at 37° C. in a 250 mL shake flask culture containing 50 mL LB media and antibiotic selection pressure, with shaking at 230 rpm. Each culture was induced overnight at 16° C. using 1 mM IPTG.
(§2) The pellet from each induced shake flask culture was harvested via centrifugation. Each pellet was resuspended and lysed via sonication. The cell debris was separated from the supernatant via centrifugation and the cell free extract was used immediately in enzyme activity assays.
Enzyme activity assays in the reverse direction (i.e., 7-aminoheptanoate to pimelate semialdehyde) were performed in a buffer composed of a final concentration of 50 mM HEPES buffer (pH=7.5), 10 mM 7-aminoheptanoate, 10 mM pyruvate and 100 μM pyridoxyl 5′ phosphate. Each enzyme activity assay reaction was initiated by adding cell free extract of the ω-transaminase gene product or the empty vector control to the assay buffer containing the 7-aminoheptanoate and incubated at 25° C. for 4 h, with shaking at 250 rpm. The formation of L-alanine from pyruvate was quantified via RP-HPLC.

[2] = ω-transaminase activity assay, 7-aminoheptanol to 7-oxoheptanol; conditions: for ω-transaminase activity for converting 7-aminoheptanol to 7-oxoheptanol (pyruvate to L-alanine): cell free extract, 10 mM 7-aminoheptanol, 10 mM pyruvate, 25° C., 4 h, against empty vector control, FIG. 19; for ω-transaminase acceptance of 7-oxoheptanol, forming 7-aminoheptanol: concluded from reversibility of the ω-transaminase activity (Example 2)
Protocol: A nucleotide sequence encoding an N-terminal His-tag was added to the Chromobacterium violaceum, Pseudomonas syringae and Rhodobacter sphaeroides genes encoding the ω-transaminases of SEQ ID NOs: 8, 10 and 11, respectively (see FIG. 7) such that N-terminal HIS tagged ω-transaminases could be produced. The modified genes were cloned into a pET21a expression vector under the T7 promoter. Each expression vector was transformed into a BL21[DE3] E. coli host. Each resulting recombinant E. coli strain were cultivated at 37° C. in a 250 mL shake flask culture containing 50 mL LB media and antibiotic selection pressure, with shaking at 230 rpm. Each culture was induced overnight at 16° C. using 1 mM IPTG.
as §2
Enzyme activity assays in the reverse direction (i.e., 7-aminoheptanol to 7-oxoheptanol) were performed in a buffer composed of a final concentration of 50 mM HEPES buffer (pH=7.5), 10 mM 7-aminoheptanol, 10 mM pyruvate, and 100 μM pyridoxyl 5′ phosphate. Each enzyme activity assay reaction was initiated by adding cell free extract of the ω-transaminase gene product or the empty vector control to the assay buffer containing the 7-aminoheptanol and then incubated at 25° C. for 4 h, with shaking at 250 rpm. The formation of L-alanine was quantified via RP-HPLC.

[3] = ω-transaminase activity assay, forward direction, pimelate semialdehyde to 7-aminoheptanoate; conditions: for ω-transaminase activity for converting pimelate semialdehyde to 7-aminoheptanoate (L-alanine to pyruvate): cell free extract, 10 mM pimelate semialdehyde, 10 mM L-alanine, 25° C., 4 h, against empty vector control, FIG. 16; for reversibility of the ω-transaminase activity: pimelate semialdehyde accepted, 7-aminoheptanoate synthesized: conclusion from forward and reverse assays of Example 2
Protocol: as §1, §2
Enzyme activity in the forward direction (i.e., pimelate semialdehyde to 7-aminoheptanoate) was confirmed for the transaminases of SEQ ID NO 10, SEQ ID NO 11 and SEQ ID NO 13. Enzyme activity assays were performed in a buffer composed of a final concentration of 50 mM HEPES buffer (pH=7.5), 10 mM pimelate semialdehyde, 10 mM L-alanine and 100 μM pyridoxyl 5′ phosphate. Each enzyme activity assay reaction was initiated by adding a cell free extract of the ω-transaminase gene product or the empty vector control to the assay buffer containing the pimelate semialdehyde and incubated at 25° C. for 4 h, with shaking at 250 rpm. The formation of pyruvate was quantified via RP-HPLC.

[4] = Carboxylate reductase activity assay, N7-acetyl-7-aminoheptanoate to N7-acetyl-7-aminoheptanal (NADPH consumption); conditions: 2 mM N7-acetyl-7-aminoheptanoate, enhanced by gene product of sfp, room temperature, 20 min, against empty vector control, FIG. 12
Protocol: The activity of each of the N-terminal His-tagged carboxylate reductases of SEQ ID NOs: 3, 6, and 7 (see Examples 4, and FIG. 7) for converting N7-acetyl-7-aminoheptanoate to N7-acetyl-7-aminoheptanal was assayed in triplicate in a buffer composed of a final concentration of 50 mM HEPES buffer (pH=7.5), 2 mM N7-acetyl-7-aminoheptanoate, 10 mM MgCl2, 1 mM ATP, and 1 mM NADPH. The assays were initiated by adding purified carboxylate reductase and phosphopantetheine transferase or the empty vector control to the assay buffer containing the N7-acetyl-7-aminoheptanoate then incubated at room temperature for 20 min. The consumption of NADPH was monitored by absorbance at 340 nm.

ω-transaminase activity for converting 7-aminoheptanoate to pimelate semialdehyde (pyruvate to L-alanine) [1] | ω-transaminase activity for converting 7-aminoheptanol to 7-oxoheptanol (pyruvate to L-alanine) [2] | ω-transaminase acceptance of 7-oxoheptanol, forming 7-aminoheptanol [2] | Molecule | ω-transaminase activity for converting pimelate semialdehyde to 7-aminoheptanoate (L-alanine to pyruvate) [3] | reversibility of the ω-transaminase activity: pimelate semialdehyde accepted, 7-aminoheptanoate synthesized [3] | carboxylate reductase activity for converting N7-acetyl-7-aminoheptanoate to N7-acetyl-7-aminoheptanal (NADPH consumption, absorbance at 340 nm) [4]
accepted 7-aminoheptanote as substrate | accepted 7-aminoheptanol as substrate | accept 7-oxoheptanol as substrate | SEQ ID NO 11: Rhodobacter sphaeroides ω-transaminase, Genbank Accession No. ABA81135.1 | accepted pimelate semialdehyde as substrate | accepted pimelate semialdehyde as substrate and synthesized 7-aminoheptanoate | 
 |  |  | SEQ ID NO 3: Mycobacterium smegmatis carboxylate reductase, Genbank Accession No. ABK71854.1 (protein, listed as Mycobacterium smegmatis) MTSDVHDATDGVTETALDDEQSTRRIAELYATDPEFAAAAPLPAVVDAAHKPGLRLAEILQTLFTGYGDRPALGYRARELATDEGGRTVTRLLPRFDTLTYAQVWSRVQAVAAALRHNFAQPIYPGDAVATIGFASPDYLTLDLVCAYLGLVSVPLQHNAPVSRLAPILAEVEPRILTVSAEYLDLAVESVRDVNSVSQLVVFDHHPEVDDHRDALARAREQLAGKGIAVTTLDAIADEGAGLPAEPIYTADHDQRLAMILYTSGSTGAPKGAMYTEAMVARLWTMSFITGDPTPVINVNFMPLNHLGGRIPISTAVQNGGTSYFVPESDMSTLFEDLALVRPTELGLVPRVADMLYQHHLATVDRLVTQGADELTAEKQAGAELREQVLGGRVITGFVSTAPLAAEMRAFLDITLGAHIVDGYGLTETGAVTRDGVIVRPPVIDYKLIDVPELGYFSTDKPYPRGELLVRSQTLTPGYYKRPEVTASVFDRDGYYHTGDVMAETAPDHLVYVDRRNNVLKLAQGEFVAVANLEAVFSGAALVRQIFVYGNSERSFLLAVVVPTPEALEQYDPAALKAALADSLQRTARDAELQSYEVPADFIVETEPFSAANGLLSGVGKLLRPNLKDRYGQRLEQMYADIAATQANQLRELRRAAATQPVIDTLTQAAATILGTGSEVASDAHFTDLGGDSLSALTLSNLLSDFFGFEVPVGTIVNPATNLAQLAQHIEAQRTAGDRRPSFTTVHGADATEIRASELTLDKFIDAETLRAAPGLPKVTTEPRTVLLSGANGWLGRFLTLQWLERLAPVGGTLITIVRGRDDAAARARLTQAYDTDPELSRRFAELADRHLRVVAGDIGDPNLGLTPEIWHRLAAEVDLVVHPAALVNHVLPYRQLFGPNVVGTAEVIKLALTERIKPVTYLSTVSVAMGIPDFEEDGDIRTVSPVRPLDGGYANGYGNSKWAGEVLLREAHDLCGLPVATFRSDMILAHPRYRGQVNVPDMFTRLLLSLLITGVAPRSFYIGDGERPRAHYPGLTVDFVAEAVTTLGAQQREGYVSYDVMNPHDDGISLDVFVDWLIRAGHPIDRVDDYDDWVRRFETALTALPEKRRAQTVLPLLHAFRAPQAPLRGAPEPTEVFHAAVRTAKVGPGDIPHLDEALIDKYIRDLREFGLI |  |  | accepted N7-acetyl-7-aminoheptanoate as substrate
accepted 7-aminoheptanote as substrate | accepted 7-aminoheptanol as substrate | accept 7-oxoheptanol as substrate | SEQ ID NO 8: Chromobacterium violaceum ω-transaminase, Genbank Accession No. AAQ59697.1 (protein, listed as Chromobacterium violaceum) MQKQRTTSQWRELDAAHHLHPFTDTASLNQAGARVMTRGEGVYLWDSEGNKIIDGMAGLWCVNVGYGRKDFAEAARRQMEELPFYNTFFKTTHPAVVELSSLLAEVTPAGFDRVFYTNSGSESVDTMIRMVRRYWDVQGKPEKKTLIGRWNGYHGSTIGGASLGGMKYMHEQGDLPIPGMAHIEQPWWYKHGKDMTPDEFGVVAARWLEEKILEIGADKVAAFVGEPIQGAGGVIVPPATYWPEIERICRKYDVLLVADEVICGFGRTGEWFGHQHFGFQPDLFTAAKGLSSGYLPIGAVFVGKRVAEGLIAGGDFNHGFTYSGHPVCAAVAHANVAALRDEGIVQRVKDDIGPYMQKRWRETFSRFEHVDDVRGVGMVQAFTLVKNKAKRELFPDFGEIGTLCRDIFFRNNLIMRACGDHIVSAPPLVMTRAEVDEMLAVAERCLEEFEQTLKARGLA |  | accepted pimelate semialdehyde as substrate and synthesized 7-aminoheptanoate | 
accepted 7-aminoheptanote as substrate | accepted 7-aminoheptanol as substrate | accept 7-oxoheptanol as substrate | SEQ ID NO 10: Pseudomonas syringae ω-transaminase, Genbank Accession No. AAY39893.1 (protein, listed as Pseudomonas syringae) MSANNPQTLEWQALSSEHHLAPFSDYKQLKEKGPRIITRAEGVYLWDSEGNKILDGMSGLWCVAIGYGREELADAASKQMRELPYYNLFFQTAHPPVLELAKAISDIAPEGMNHVFFTGSGSEGNDTMLRMVRHYWALKGQPNKKTIISRVNGYHGSTVAGASLGGMTYMHEQGDLPIPGVVHIPQPYWFGEGGDMTPDEFGIWAAEQLEKKILELGVENVGAFIAEPIQGAGGVIVPPDSYWPKIKEILSRYDILFAADEVICGFGRTSEWFGSDFYGLRPDMMTIAKGLTSGYVPMGGLIVRDEIVAVLNEGGDFNHGFTYSGHPVAAAVALENIRILREEKIVERVRSETAPYLQKRLRELSDHPLVGEVRGVGLLGAIELVKDKTTRERYTDKGAGMICRTFCFDNGLIMRAVGDTMIIAPPLVISFAQIDELVEKARTCLDLTLAVLQG | accepted pimelate semialdehyde as substrate | accepted pimelate semialdehyde as substrate and synthesized 7-aminoheptanoate | 
accepted 7-aminoheptanote as substrate |  |  | SEQ ID NO 13: Vibrio fluvialis ω-transaminase, Genbank Accession No. AEA39183.1 (protein, listed as Vibrio fluvialis) MNKPQSWEARAETYSLYGFTDMPSLHQRGTVVVTHGEGPYIVDVNGRRYLDANSGLWNMVAGFDHKGLIDAAKAQYERFPGYHAFFGRMSDQTVMLSEKLVEVSPFDSGRVFYTNSGSEANDTMVKMLWFLHAAEGKPQKRKILTRWNAYHGVTAVSASMTGKPYNSVFGLPLPGFVHLTCPHYWRYGEEGETEEQFVARLARELEETIQREGADTIAGFFAEPVMGAGGVIPPAKGYFQAILPILRKYDIPVISDEVICGFGRTGNTWGCVTYDFTPDAIISSKNLTAGFFPMGAVILGPELSKRLETAIEAIEEFPHGFTASGHPVGCAIALKAIDVVMNEGLAENVRRLAPRFEERLKHIAERPNIGEYRGIGFMWALEAVKDKASKTPFDGNLSVSERIANTCTDLGLICRPLGQSVVLCPPFILTEAQMDEMFDKLEKALDKVFAEVA | accepted pimelate semialdehyde as substrate | accepted pimelate semialdehyde as substrate and synthesized 7-aminoheptanoate | 
